From the DeepSol protein solubility set

Experiment: soluble on expression in E. coli; label from the status in PepcDB or PDB records

Soluble on expression in E. coli, not soluble:
MGSDKIHHHHHHKDLLGREVEIPSNVNRIVAVGPGALRLIAYLKATDMVVGVEDFEKLRPYGRPYILAYPELKKLPSVGPGGPGKLPDLESLITLQPDVVFITYVDRKTAKDIQEKTGIPVVVLSYGNLGTFEDEDLFRSIELAGKILGREERAHEVVDFIRKAQEDLVTRSEGVESPTVYVGGIGYKGAHGIDSTEAKYPPFVVLHARNVVDELGEGHKFIDPEKLLVWNPEYIFIDENGLSLVLDDYSKHREFYESLSAVKRGKVYGILPYNYYTTNIGTALADAYFIGKVLYPERFTDIDPEEKADEIYEFLLGKRVYGEMAEQFGGFGKIDLPSGRILRGTW, MGSDKIHHHHHHKPGREFYASDIRESMEKGDKLAILMVHFGSAYPEARTQVLDVMNKRVKEAFPDVEVRQAYSARSVVSRLRAQGVWVQLPADALVELRDQGFTHVIIQPTIIIEGVEMEAIRKEAEQRKGLFKDLRVGNPLLYDDADYEAVMKAVSSPSGVTKNGAKLLVAHGTYHASNSAYAKLGYMFQTKGMKDYYTGTREGFPTIENVGEQMRQAGHKRVQLIPFMFVLIRGTENTVTDFWQKGLRQQGFDVDIYLKPLGENPAIRSLFIDHIRFAMKYKRATIFDRKKLYTH, MGSDKIHHHHHHLAAEIIAVTQQKGGVGKSTIAMHLGAAFHEKGKRVLVVDADGQNTLIHWASASSDGDTGIPFPVVNLSEAGSQIHREIKKFVADYDIIVVDCPPSITEKVSGVVLLAASVAVIPTSSSPADYWSSIGLVKLVQQAQLMNEDLRAVFLLNKTEEKRMLTRELKRALEELGFPLLKTQIPTREAYKQAMALGQTVLQMNDRGAKLAAIEVRACANEIAALLP, MGSDKIHHHHHHLAARNFPPVLPFSPRKIAVLHAKAVGDFIVILPALDAIKRTYPEAELILLAKPWVKEFFSGRPSPVDRVLSLPPLAGVNDPVESKGRVPSTGSGVYPVEVELFCQAMQGEKLDVVIHMQGDGKSVNPFINKFAARVTAGMCNPPAESLDRSIPYVHYQSEVLRNLEVASLIGARTTSTGFEPRIEVTESDEQETESVRQTIKGKPYVVIHPGADDIRRVWPAVRFAEAADCLLEKGYAVVVTGTPKEEERVATVIRAMSRPAIPCTRLGLCGLAALLQHSALVISNDTGPLHLARAVGARTVGIYWAPNILNWGPLSRDRHRLAIGWQLECPQCGIRPVSPWPFQPQTSDCSHPYSFVESVPVAEVLALATELLGLTTEH, MGSDKIHHHHHHLANLGFDFSPDFRPLAARMRPRVLSEYIGQSHLLGEGKALRVALEANRAHSMLLWGPPGTGKTTLAELIAHYANAHVERISAVSSGVKDIRAAIEQAKAVAQSRGQRTLLFVDEVHRFNKSQQDAFLPYIEDGTVIFVGATTENPSFELNNALLSRARVYLIHKLTETEITEIIIQALEDTERGLGKRQLIIPPEVMAELTHVSDGDARKALNLIELMSDLVADGDAVNLEMLSQVVGHKAAGYDKNGDQFYDLISAVHKSIRGSAPDAALYWFCRILEGGGDPLYVARRLLAIASEDIGNADPVAMTVALNAWDCFHRVGPAEGERAIAQAVLYLASAPKSNAVYTAFSAARELAHATGHEAVPNHLRNAPTKLMKTLAVGEGYRYAHDEPNAYAAGECYLPPSLEGQQFYQPTERGFEKRIKEKLAQLNQLDGHSRVKRYD, MGSDKIHHHHHHLELPLPPPGEDIVGQVHVIKAKYEDTFADIGTANDLGYLEMIAANPGVDPWLPGAGTEIILPTRFVLPPGPREGIVINLAEYRMYYFPKGESVVYTFPLGIGREGWGSPIANTRITAKTPNPTWTPPASIRKEHAEDGDILPTVVPAGPDNPLGPFKFTLGVPGYLIHGSNKKFGIGMRTSHGCFRMFNNNVLELSKMVPVGTPVRIINEPYKFGISAGKVYLEAHTPLDDQGNPSVVDKHTAVINALLKREDLANNLRMNWDMVRDVVAAEDGMPVEIAVPVENQGAAPMVTSIPPELQ, MGSDKIHHHHHHLGFKIEAELLQAMKDLKDSVPASGSERVRNEFIQILLSELPSQGIRRLLELGLLERLIPELMPAIGFDTRSSYHDKDVFEHSLAVLDNTEPNLTLRLAALLHDIDKPNSLTVDEDGEGYCYGHASGGSEIARTILGRLNFDRKTIKAVSAIIKEHMNDFENISELSIKRLIRRVGPDNIDRLFELQLADIKGSKLSSRSPERITKTRNKCFEVLSRREPLTVHDLDISGYDLFSLGYPPGKEIGEAMDYLLDQVINNPSLNQRDTLIALLMNQ, MGSDKIHHHHHHLGILDAPAVQPSKVGLEALYAKTSASLGLFHTSLAGRHFAPCKILVVGDSISEGAGATLNIRNRWQDRLKENLRSRFPTDGSPGTTLHYVPAMNVVNMPGDMAVRSAGVTTGTSFGFGARHAQLTAAGHTVTFTVTGTSAKVVYPKSSGGGSFTWQVDGGTVSSAVSQSAGSLTDGFTTDIPLGASGSHTVVIAWVSGGSVFIDGLLVYNGDETKGIHVIDGAHSGWGAQNFQLNGIQFYQGSLTTMLQPSLVIIALGINDFAFGSLSIANYKIHMQSNIDRYRGAIPTKPPSILLVAMHRRSPVSAVATWAEYVQAMKELAQANDGVAFLDLSARLPQVSGDTRGLYADEVHPANLGHSAIADNVTSFIVPR, MGSDKIHHHHHHLITVQDLELRAGARLLMDQVSFRIDKGDKIGLVGRNGAGKTTLTRVLAGEGLPAAGKVTRSGEIGYLPQDPRTPDMEQLARDRILSVRGLDIAVGKLRLAHEEMASEDAAVQRKAMNRYDRLESEFLAAGGYAAEAEAAAICSNLALPDRLLNQPLKTLSGGQRRRVELARILYSDAETMLLDEPTNHLDADSIAWLRDFLKNHQGGLIVISHDTELLEATVNKVFLLDANRAQIDFYNMDWKRYLQQRETDERARKRERANAEKKAQVLFDQANKMRAKATKAVAAQNMAKRAERLLSGLEAVRENDRVAALRFPDPSPCGKTPLTADGLSKSYGSLEIFTDVDLAIDRGSKVVILGLNGAGKTTLLRMLAGVDKPDTGEVIAGHGLKVGYYAQEHETLDVDRTVLQNMRSSAPDMNDSEVRGILGSFLFSGDDVDKPAGVLSGGEKTRLALATIVASSANVLLLDEPTNNLDPASRTEILGALRNYTGAVVLVSHDEGAVEALNPERVVLLPDGVEDHWNEDYLDLITLA, MGSDKIHHHHHHLKAAIVTHLDQAPIYGDFPAPKPAPKQVLITVLASSVNQRVRSQADGSHYTKTPELPFIPGLDGVGRTSDGQLVYFLTRDPKFGALAEQTVTQQQLMFPLPEDADPAQIAASVNPAMAGWMALRVKAGQVVGKRVLVLGATGAAGTAAVQIAKTMGAAHVAGVGRNPDKLAALSDLGADTTVQLGDTAALAALPPADIVLDFLWGAPSATVMMTLLKARRDHAAKLIWIEIGGAAGPTLSLPAAALRSTGLTLVGSGQGSLTLADYQRELPALFTALTAGKFVTPTTVLSLSQVHDHWQDRGAARLVFQP, MGSDKIHHHHHHLRMSRIQARLLQAIVRPALKTNLLKHAAWRVVLKLRNEFAHAVPPVELETTFDENIRILTSLSDHIESQVFWQGFQEADEGVILLLKRFLPSDGSFIDVGANIGTFTLVAAHRAVRGQVHAFEPSAHHFARLAHNVELNDFKNVALNRKGLYDQPGEAVLFLPSQTGEMNNSGAASLYTSALEETRQVSEAVSLIRLDDYVREKSIGRVDIIKIDIEGAELKALEGARETIARFRPLVFMELDLDNLERAERSPEEVLQYWKSLNYEVSIILLTGETVPVTSPKEFGLHQNLQCRPF, MGSDKIHHHHHHLRVGEVAPTAIDLHIHTIESDGSLSVAGVIQEAAERGVRVLALTDHETTNGVPEAMELGQKHNLNIIPGVELITAFKGKEVHLLGYFSYAAMMHSDLQSRLKELRQQRTYLAFEMVKRLQKDGFTLKWAEVEKIANPEGAVSKGHIMRALHEHENGTIQWPVIAKLFQPYGIAYLPFLEHPFEEAVDLIYTCGGVPVLAHPGLLRDDRMVGELLSYLPMGLEVYYGYWEQREALIQNYKTIAQDKAILTTGGSDFHGLFGPVKLGEIEVPEQCSRELQTFLKLDF, MGSDKIHHHHHHLVNFIRKNVLPQFGFSREHSTLYPLGNGHINQTFLVSDKSKSLVLQRINTQIFTDPKVVIQNAANISQHLLIKRQQLHYPLQVVSPIATVAGALYLDLGEQGFWRAIDYLPHSTTIEVVDTLNQAKLAAEAFGHFAEALSDLNPSCIADVIPNFLNLPQRIAQLREAKAGDTHNRFSHCIDWVGLCLSQTDLLATLVQYEAELPIRICHNDTKINNMLFDNRDMSSMAIIDLDTCMKGYLMYDFGDMVRAFCSPETEDSTNLTNVYARPEIVIAAATSYMESLGGIITPLEKRSLWLGTKVMSLMLGVRFLTDYLNGDTYFGVKYQTHNLDRAINQLTIYQSLLQQEAQLMPLFNS
